This note sets out measurements from patent publication US20150118700.

For data set [1], the target named is T1, α-fructosyl hexapeptide (α-fructosyl-valyl-histidyl-leucyl-threonyl-propyl-glutamic acid).
T1 chain: VHLTPE

The target of data set [2] is T2, α-fructosyl valyl histidine.
T2 chain: VH

Changes are numbered by the printed parent chain. Names and notes keep the numbering of the source.

B1: fructosyl peptide oxidase derived from Eupenicillium terrenum (EFP-T5) (protein)
chain: MAHSRASTKVVVVGGGGTIGSSTALHLIRSGYTPSNITVLDVYKTPSLQSAGHDLNKIMGIRLRNGPDLQLSLESLDMWQNDELFKPFFHQVGMIDCSSSKEGIENLRRKYQTLLDAGIGLEKTNVWLESEDEILAKAPNFTREQVKGWKGLFCTDGGWLAAAKAINAIGIFLQDKGVKFGFGDAGTFQQPLFAADGKTCIGLETTDGTKYFADKVVLAAGAWSPTLVDLEDQCVSKAWVFAHIQLTPKEADAYKNVPVVYDGEYGFFFEPDEYGVIKVCDEFPGFSRFKLHQPYGAASPKMISVPRSHAKHPTDTYPDASEVTIRKAIARFLPEFKDKELFNRTMCWCTDTADANLLICEHPKWKNFILATGDSGHSFKLLPNIGKYVVELLEGSLSQEMAGAWRWRPGGDALRSRRGAPAKDLAEMPGWKHDAHL
In turn, B1 came in with a Specific activity (U/mg), 1 mM αF6P in data set [1] of 0 U/mg.

B2: EFP-T5-62D/63H/106K/110L/113K/355S (protein)
chain: B1 chain with R62D, L63H, N106K, K110L, T113K, A355S
Consider B2, for which, in data set [1], the Specific activity (U/mg), 1 mM αF6P was 1.12 U/mg.

B3: EFP-T5-R62D (protein)
chain: B1 chain with R62D
For the protein B3, in data set [1], the Specific activity (U/mg), 1 mM αF6P was found to be 0.0043 U/mg.

B4: PnFX-62D/106K/110L/113K (protein)
chain: MAPSRANTSVIVVGGGGTIGSSTALHLVRSGYTPSNVTVLDAYPIPSSQSAGNDLNKIMGVDLRNPVDLQLALEARQMWNEDELFKKFFHNTGRLDCAHGEKDIAKLKSLYQKLVDAGLDATNEWLDSEDEILKRMPLLSRDQIKGWKAIFSKDGGWLAAAKAINAVGEYLRDQGVRFGFYGAGSFKAPLLAEGVCIGVETVDGTRYYADKVVLAAGAWSPTLVELHEQCVSKAWVYGHIQLTPEEAARYKNSPVVYNGDVGFFFEPNEHGVIKVCDEFPGFTRFKMHQPFGAKAPKRISVPRSHAKHPTDTIPDASDVSIRRAIATFMPQFKNKKMFNQAMCWCTDTADAALLICEHPEWKNFVLATGDSGHSFKLLPNIGKHVVELLEGTLADDLAHAWRWRPGSGDALKSRRSAPAKDLADMPGWNHDKPRANL
As for B4, in data set [1], the Specific activity (U/mg), 1 mM αF6P was found to be 0.125 U/mg and the “specific activity on αF6P, fold over PnFX” value is listed as “specific activity was elevated by 13.7 fold”.

B5: PnFX-62D/63H/106K/110L/113K/351S (protein)
chain: B4 chain with L63H, A351S
B5 had a Specific activity (U/mg), 1 mM αF6P in data set [1] of 0.667 U/mg.

B6: ketoamine oxidase derived from Neocosmospora vasinfecta (NvFX) (protein)
chain: MTTPRKETTVLIIGGGGTIGSSTALHLLRAGYTPSNITVLDTYPIPSAQSAGNDLNKIMGIRLRNKVDLQLSLEARDMWRNDALFRPFFHNTGRLDCESSAEGVEGLRREYQKLVEAGVGLEETHEWLDSEEAILEKAPLLQREEIEGWKAIWSEEGGWLAAAKAINAIGEELQRQGVRFGFGGAGSFKRPLFADDGTTCIGVETVDGTQYHADKVVLAAGAWSPALVDLEEQCCSKAWVYAHMQLTPEEAAVYKGCPVVYHGDVGFFFEPNENGVIKVCDEFPGFTRFKQHQPYGAPAPKPVSVPRSHAKHPTDTYPDASEESIKRAVSTFLPRFKDKPLFNRALCWCTDTADSALLICEHPRWKNFILATGDSGHSFKLLPIIGKHVVELVEGRLADDLAEAWRWRPGQGDARKSIRAAPAKDLADMPGWKHDQDSESR
In the case of B6, the Specific activity (U/mg), 1 mM αF6P in data set [1] is 0 U/mg.

B7: NvFX-62D/106K/110L (protein)
chain: B6 chain with R62D, G106K, E110L
In data set [1], B7 registered a Specific activity (U/mg), 1 mM αF6P of 0.003 U/mg.

B8: fructosyl amino acid oxidase derived from Aspergillus nidulans with serine 59 substituted with glycine (AnFX) (protein)
chain: MTPRANTKIIVVGGGGTMGSSTALHLLRAGYTPSNITVLDTCPIPSAQSAGYDLNKIMGIRLRNKPDLQLSLEALDMWKNDPLFKPFFHNVGMIDVSSTEEGIEGLRKKYQSLLDAGIGLEKTNFMLESEDEILAKAPHFTQEQIKGWKGLFCGDGGWLAAAKAINAIGQFLKEQGVKFGFGGAGTFKKPLFADAHEKTCIGVETVDGTKYYADKVVLAAGAWSSTLVDLEEQCVSKAWVFAHIQLTPAEAAAYKNTPVIYDGDYGFFFEPNENGIIKVCDEFPGFTHFKMHQPYGSPAPKPISVPRSHAKHPTDTYPHASEVTIKKAINRFLPRFNDKELFNRAMCWCTDTADANLLVCEHPRWKGFYLATGDSGHSFKLLPNIGKHVVELLEERLESVFKDAWRWRPGSGDALKSRRAAPAKDLADMPGWRNEAKM
Regarding B8, in data set [1], the Specific activity (U/mg), 1 mM αF6P was determined as 0 U/mg.

B9: AnFX-61D/62H/101K/105K/109L/112K/355S (protein)
chain: B8 chain with R61D, L62H, E101K, G105K, K109L, S112K, A355S
B9 returned a Specific activity (U/mg), 1 mM αF6P in data set [1] of 0.283 U/mg.

B10: AnFX-61D/105K/109L (protein)
chain: B8 chain with R61D, G105K, K109L
Protein B10 came in with a Specific activity (U/mg), 1 mM αF6P in data set [1] of 0.106 U/mg.

B11: CFP-T7 (protein)
chain: MTSNRADTRVIVVGGGGTIGSSTALHLVRSGYAPANITVLDTFEIPSAQSAGHDLNKIMGIRLRNKVDLQMSLEARQMWKEDELFQPFFHNTGRMDCEHTPEGIEDLKKQYQALHDAGAGLEKTHAWLDNEDEILSKMPLLQRDQIQGWKAIWSQDGGWLAAAKAINAIGQFLKERGVKFGFGGAGSFKQPLFDDEGTTCIGVETADGTKYYADKVVLAAGAWSPTLVDLEDQCCSKAWVYAHIQLTPEEAAEYKGVPVVYNGEFGFFFEPDEFGVIKVCDEFPGFSRFKEHQPYGAPSPKRISVPRSHAKHPTDTYPDASEVSIKKAIATFLPRFQDKELFNRALCWCTDTADAALLMCEHPKWKNFILATGDSGHSFKILPNVGKYVVELIEGRLPEEMAYQWRWRPGGDALKSRRAAPPKDLADMPGWKHDPKL
B11 gave a Specific activity (U/mg), 1 mM αFVH in data set [2] of 16.5 U/mg. Besides, in data set [1], the Specific activity (U/mg), 1 mM αF6P was determined as 0 U/mg; the “ΔA at 751 nm (hydrogen peroxide generated upon oxidation of αF6P) against αF6P concentration” value is “no correlation was observed between ΔA and αF6P concentration”; the αF6P oxidation activity, relative to αFVH oxidation activity designated to be 100 (relative (αFVH = 100)) came out at 0.

B12: CFP-T7-H20 (protein)
chain: B11 chain with R62D, D106K, Q110L, A113K
As to B12, in data set [2], the Specific activity (U/mg), 1 mM αFVH is 4.28 U/mg. For the same protein, in data set [1], the Specific activity (U/mg), 1 mM αF6P is 0.85 U/mg; the αF6P oxidation activity ratio (reference, designated to be 100) (relative (CFP-T7-H20 = 100)) amounted to 100; the αF6P oxidation activity, relative to αFVH oxidation activity designated to be 100 (relative (αFVH = 100)) stood at 20.5.

B13: CFP-T7-H4 (protein)
chain: B11 chain with R62A, Q110Y
B13 registered a αF6P oxidation activity, relative to αFVH oxidation activity designated to be 100 (relative (αFVH = 100)) in data set [1] of 0.0341.

B14: CFP-T7-H3 (protein)
chain: B11 chain with R62A, Q110F
In the case of B14, the αF6P oxidation activity, relative to αFVH oxidation activity designated to be 100 (relative (αFVH = 100)) in data set [1] came to 0.0298.

B15: CFP-T7-H2-62N (protein)
chain: B11 chain with R62N, Q110L
For the protein B15, in data set [1], the αF6P oxidation activity ratio, relative to CFP-T7-H2 designated to be 100 (relative (CFP-T7-H2 = 100)) was found to be 120.

B16: CFP-T7-H21 (protein)
chain: B11 chain with R62D, D106K, Q110L, A113R
B16 showed a Specific activity (U/mg), 1 mM αFVH in data set [2] of 4.05 U/mg. In data set [1], this protein registered a Specific activity (U/mg), 1 mM αF6P of 0.795 U/mg and a αF6P oxidation activity, relative to αFVH oxidation activity designated to be 100 (relative (αFVH = 100)) of 20.8.

B17: amadoriase exhibiting 95% sequence identity with ketoamine oxidase derived from Curvularia clavata (Cc95FX) (protein)
chain: MAPSRANTSVIVVGGGGTIGSSTALHLVRSGYTPSNITVLDAYPIPSSQSAGNDLNKIMGIRLRNKVDLQLSLEARQMWREDDLFKEYFHNTGRLDCAHGEEGLADLRQAYQALLDANAGLEETTEWLDSEDEILKKMPLLSRDQIKGWKAVYSQDGGWLAAAKAINAIGEYLRAQGVKFGFGGAGSFKQPLLAEGVCIGVETVDGTRYYADKVVLAAGAWSPTLVELHEQCVSKAWVYGHIQLTPEEAAEYKNSPVVYNGDVGFFFEPNEHGVIKVCDEFPGFTRFKMHQPFGAKAPKRISVPRSHAKHPTDTIPDASEKSIRKAIATFLPKFTEKELFNRHLCWCTDTADAALLICEHPEWKNFVLATGDSGHSFKLLPNIGKHVVELLEGTLADDLAHAWRWRPGSGDALKSRRSAPAKDLADMPGWKHDDVVKSKL
In turn, B17 came in with a αF6P oxidation activity, relative to αFVH oxidation activity designated to be 100 (relative (αFVH = 100)) in data set [1] of 0.

B18: Cc95FX-62D/63H/106K/110L/113K/353S (protein)
chain: B17 chain with R62D, L63H, D106K, A110L, A113K, A353S
As for B18, the αF6P oxidation activity, relative to αFVH oxidation activity designated to be 100 (relative (αFVH = 100)) in data set [1] was 237.
